In PMC9129000, “RADA-dependent branch migration has a predominant role in plant mitochondria and its defect leads to mtDNA instability and cell cycle arrest”:

Target: T1, RADA K201A (Arabidopsis thaliana, UniProt F4K8X8 49-627, K201A)
T1 sequence: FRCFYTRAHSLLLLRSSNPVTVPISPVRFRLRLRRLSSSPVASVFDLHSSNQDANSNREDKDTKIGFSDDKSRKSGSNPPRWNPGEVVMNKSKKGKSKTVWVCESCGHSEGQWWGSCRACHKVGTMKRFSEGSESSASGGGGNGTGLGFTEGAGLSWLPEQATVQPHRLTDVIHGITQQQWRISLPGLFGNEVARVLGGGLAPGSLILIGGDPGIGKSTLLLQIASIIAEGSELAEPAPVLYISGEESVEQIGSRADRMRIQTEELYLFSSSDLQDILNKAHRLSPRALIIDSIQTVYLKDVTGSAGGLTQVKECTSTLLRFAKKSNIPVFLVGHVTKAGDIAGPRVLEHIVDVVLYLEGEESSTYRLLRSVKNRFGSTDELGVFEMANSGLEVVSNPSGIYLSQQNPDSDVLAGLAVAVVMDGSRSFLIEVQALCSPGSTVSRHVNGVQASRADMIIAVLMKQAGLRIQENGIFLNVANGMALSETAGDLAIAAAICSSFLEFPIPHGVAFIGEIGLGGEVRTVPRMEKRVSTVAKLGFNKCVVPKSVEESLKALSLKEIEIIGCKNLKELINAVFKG
Test: EMSA; affinity comparable to WT; 20 mM Tris-HCl pH 7.5, 50 mM KCl, 5 mM MgCl2, 0.5 mM EDTA, 10% glycerol, 1 mM DTT, protease inhibitors; 20 C, 20 min; 8 or 4.5% PAGE in TBE at 4 C
Details: protein: recombinant; tags: N-terminal His (pET28a); chain copies: 6; label: 5'-32P; single strand

B1: EMSA ssDNA (ssDNA)
DNA: GACGCTGCCGAATTCTACCAGTGCCTTGCTAGGACATCTTTGCCCACCTGCAGGTTCACCC
- binding result: binds
